In this test the target is GST-GABARAP (human, UniProt O95166 1-117). Briefly: pull-down.
Chain of GST-GABARAP (O95166 whole entry): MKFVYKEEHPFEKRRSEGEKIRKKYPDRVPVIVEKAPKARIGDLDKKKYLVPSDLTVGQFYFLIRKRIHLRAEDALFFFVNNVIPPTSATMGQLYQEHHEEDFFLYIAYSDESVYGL

KPHKHLPPAALHLIAYYKENKDREDKR [WSTF peptide PP4 (residues 466-492)]: the binding result is “binds”.

The values are drawn from paper doi:10.1101/2022.10.04.510822 (bioRxiv, 2022).
